{"source": "patent US6194173A", "about": "“Binding proteins for phosphoinositides, GRP1 or general receptor 1 for phophoinositide” (priority 1999, dated 2001)", "key": {"PH domain of GRP": {"biological_target": "T1, PH domain of GRP (Mus musculus, UniProt O08967)", "T1 sequence (O08967 239-399)": "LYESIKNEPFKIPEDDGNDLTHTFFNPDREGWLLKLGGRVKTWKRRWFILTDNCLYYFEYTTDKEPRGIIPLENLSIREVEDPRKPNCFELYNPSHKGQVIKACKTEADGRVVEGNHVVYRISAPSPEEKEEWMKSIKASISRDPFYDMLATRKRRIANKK", "test": "Competition for [3H]dioctanoyl PtdIns(3,4,5)P3 binding to the PH domain of GRP", "set-up": "GST fused to the PH region of GRP (amino acids 239-399); made in house; host or cells: bacteria", "conditions": "FIG. 9B", "description": "Binding assays were performed as described in (Rameh, L. E. et al., J. Biol. Chem., In Press). Briefly, GST fused to the PH region of GRP (amino acids 239-399) was bound to glutathione immobilized on agarose beads (Sigma). Synthetic [^3 H]-labeled diotanoyl PtdIns(3,4,5)P3 was added, and after one hour the beads were separated from the supernatant by centrifugation. The amount of [^3 H]-PtdIns(3,4,5)P3 bound to the PH domain was calculated by subtracting the amount of free [^3 H] present in supernatants from GST-GRP from the amount of free [^3 H] in supernatants from control GST. The data was fitted to the equation [bound]=Bmax×[free]/(KD + [free]) by least squares curve fit. For the competition assays the beads containing the GST-fusion proteins were incubated with 2.5 μM[^3 H]-labeled dioctanoyl PtdIns(3,4,5)P3 bound was calculated based on the amount of [^3 H] bound to the beads in the absence of competitor. The total [^3 H] bound to the GST control was less then 0.5% of the total [^3 H] bound to GRP PH domain. The data was fitted to the equation % bound=100-n×L/Klapp +L) where n is the % specific binding, L is the concentration of unlabeled lipid added and Klapp is the apparent competitive dissociation constant. The rations of the apparent dissociation constants accurately reflect the ratios of the true dissociation constants under the present experimental conditions (Rameh, L. E. et al., J. Biol. Chem., In Press).\nThe data depicted in FIG. 8 indicate that receptor signaling through PI3-kinases, which generates PtdIns(3,4,5)P3, may specifically regulate ARF proteins through GRP. In order to further test this, the relative binding affinities of PtdIns(3,4,5)P3 versus PtdIns (4,5)P2, which is constitutively present in cell membranes, for the PH domain of GRP were determined. A GST fusion protein of the PH domain of GRP was incubated with various concentrations of synthetic [^3 H]dioctanoyl PtdIns(3,4,5)P3 and binding was determined (FIG. 9A). These experiments show high affinity binding of this polyphosphoinositide,with a calculated Kd=0.5 μM."}, "GRP": {"biological_target": "T2, GRP (Mus musculus, UniProt O08967)", "T2 construct": "GST (N, cleaved yes); made in house; host or cells: GRP from pGEX-4T; ARF1 from baculovirus-infected Sf-9 cells", "T2 sequence (O08967 1-399)": "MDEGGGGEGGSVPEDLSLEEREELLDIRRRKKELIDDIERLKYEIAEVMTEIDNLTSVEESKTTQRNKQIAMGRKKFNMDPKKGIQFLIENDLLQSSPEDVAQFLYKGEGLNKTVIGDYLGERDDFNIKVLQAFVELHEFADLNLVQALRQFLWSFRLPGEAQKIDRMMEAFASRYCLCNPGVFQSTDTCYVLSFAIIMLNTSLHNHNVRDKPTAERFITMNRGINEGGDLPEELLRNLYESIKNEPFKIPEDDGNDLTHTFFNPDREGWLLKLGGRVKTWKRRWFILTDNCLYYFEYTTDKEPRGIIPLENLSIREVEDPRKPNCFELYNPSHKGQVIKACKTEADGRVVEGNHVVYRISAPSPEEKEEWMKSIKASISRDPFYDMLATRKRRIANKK", "test": "Effect of phosphoinositides on GRP-catalyzed ARF1 guanine nucleotide exchange", "type": "biochemical", "conditions": "25 μM lipid, 0.15 μM GRP"}, "ARNO": {"test_system": "ARNO", "conditions": "vesicles with high concentrations of negatively charged phospholipids; cited from earlier work"}, "PH domain of PLCγ1": {"test_system": "PH domain of PLCγ1", "conditions": "cited from earlier work"}, "ARF1": {"test_system": "ARF1", "test": "ARF1 guanine nucleotide exchange ([35S]GTPγS binding)", "type": "biochemical"}, "[1]": {"test": "Binding of [32P]PI(3,4,5)P3 by GST fusion proteins spotted on nitrocellulose", "conditions": "150 pmol protein on nitrocellulose; relative to GST", "description": "The 3'-phosphatidylinositol probes labeled at the 3' position were generated using GST-p110 PI3-kinase purified from recombinant bacculovirus infected Sf 9 cells, using either purified phosphatidylinositol phosphates or crude brain lipid. Briefly, 20 mg phospholipid in chloroform was dried under N2 and resuspended in […] of buffer containing Tris-HCl pH 7.4, EDTA 1 mM and incubated in […] phopsphorylation media containing 20 mM Tris-HCl pH 7.4, 100 mM NaCl, 10 mM MgCl2, 0.5 mM EGTA. 0.2 mM adenosine, GST-p110 and 5-10 mCi [g-^32 P]ATP (5 Ci/umol). The reaction was carried out for 2 h at room temperature, quenched by addition of 0.2 ml of 1M HCl, followed by 0.5 ml of chloroform:methanol (1:1). The organic phase containing phospholipids was washed 4 times with 0.4 ml of methanol:HCl (1: 1) and stored at -70° C. until use. Just before use, the lipid was dried under a stream of nitrogen with phosphatidyl serine corresponding to a final concentration of 20 mg/ml. The identities of the PI3-P, PI3,4-P2 and PI3,4,5-P3 were confirmed by TLC and HPLC analysis.\nTo generate the GST fusion proteins, PCR reactions using the primers: […] (SEQ ID NO:9) and […] (SEQ ID NO:10) for the GST-N construct, […] (SEQ ID NO:11) and […] (SEQ ID NO:12) for the GST-Sec7 construct, […] (SEQ ID NO:13) and […] (SEQ ID NO:14) for the GSTPH construct, and […] (SEQ ID NO:15) and […] (SEQ ID NO:16) for the GSTGRP constructs. The sequences of the PCR products were verified, and cloned into pGEX-5X-3 in the EcoRI and Xba 1 sites. The bacteria were lysed and the fusion proteins were bound to gluthathione agarose according to standard procedures. Elution was effected by incubation of the beads with one volume 20 mM Hepes, 100 mM NaCl, 1 mM dithiotreitol (H buffer) supplemented with 10 mM gluthatione and 1% sodium cholate, and the eluate was dialyzed extensively against H buffer. For binding assays, protein was bound to nitrocellulose using a BIO-RAD BIO-DOT™ apparatus, using 150 pmol per well for binding assays and 7.5 pmol for competition assays. The nitrocellulose was washed in assay buffer, and 3 mm circles of the filters containing the protein were cut out and incubated in […] assay buffer with the relevant lipids and competitors for 2 h under constant agitation. The filters were washed four times with 1 mL assay buffer and counted in a scintillation counter.\nIn order to determine whether PI(3,4,5)P3 binding could be localized to specific sequences within the GRP structure, GST fusion proteins containing either residues 239 to 399 (PH domain), residues 52 to 260 (Sec7 domain), or residues 5 to 71, full length GRP residues 5-399 were expressed in bacteria and purified on glutathione-conjugated beads. […] 150 pmol of the proteins were spotted on nitrocellulose filters, incubated with [^32 P]PI(3,4,5)P3 and the amount of bound lipid was determined as described. The values are the means of the quadruplicate determinations, and the error bars are the standard deviations. […] Nitrocellulose filters with GST-PH were incubated with 25,000 cpm of each of the phospholipids and the amount of bound lipid determined as described above. The values are the means of quadruplicate determinations and the error bars are the standard deviations. […] Although previous work has shown that PH domain from PLCδ (Lemmon et al. (1995) supra) and various other proteins bind 4,5-polyphosphoinositide, none have been reported to preferentially associate with a 3-polyphosphoinositide. […]"}, "ARF5 [2]": {"test_system": "ARF5", "test": "ARF5 guanine nucleotide exchange ([35S]GTPγS binding)", "type": "biochemical"}, "ARF6": {"test_system": "ARF6", "test": "ARF6 guanine nucleotide exchange ([35S]GTPγS binding)", "type": "biochemical"}, "ARF5 [3]": {"test_system": "ARF5", "conditions": "cited from earlier work"}, "[4]": {"test_system": "integrin β2 cytoplasmic domain", "conditions": "through Sec7 homology region; cited from earlier work"}, "[5]": {"conditions": "40 minutes, phosphatidylcholine and cholate"}}, "note": "“Also recorded” adds a separate entry of the source."}
{"molecule": "PtdIns(4,5)P2", "values": [{"measurement": "affinity, fold lower than PtdIns(3,4,5)P3", "setting": "PH domain of GRP", "result": 50, "unit": "fold"}, {"measurement": "stimulation of ARF1 exchange activity in the presence of GRP", "setting": "GRP; 0.05% cholate and 0.05% CHAPS (low negative charge)", "result": "little or no effect"}, {"measurement": "stimulation of ARF1 exchange activity in the presence of GRP", "setting": "GRP; 0.1% cholate (high negative charge)", "result": "stimulated"}, {"measurement": "recruitment of ARNO and stimulation of guanine nucleotide exchange on ARF1", "setting": "ARNO", "result": "causing stimulation of guanine nucleotide exchange on ARF1; also recorded: sufficient for its recruitment to membranes as well as activation of ARF exchange"}, {"measurement": "interaction with isolated PH domain of PLCγ1", "setting": "PH domain of PLCγ1", "result": "high affinity"}]}
{"molecule": "GRP: general receptor for phosphoinositides, mouse protein with SEC7 and PH domains (protein) MDEGGGGEGGSVPEDLSLEEREELLDIRRRKKELIDDIERLKYEIAEVMTEIDNLTSVEESKTTQRNKQIAMGRKKFNMDPKKGIQFLIENDLLQSSPEDVAQFLYKGEGLNKTVIGDYLGERDDFNIKVLQAFVELHEFADLNLVQALRQFLWSFRLPGEAQKIDRMMEAFASRYCLCNPGVFQSTDTCYVLSFAIIMLNTSLHNHNVRDKPTAERFITMNRGINEGGDLPEELLRNLYESIKNEPFKIPEDDGNDLTHTFFNPDREGWLLKLGGRVKTWKRRWFILTDNCLYYFEYTTDKEPRGIIPLENLSIREVEDPRKPNCFELYNPSHKGQVIKACKTEADGRVVEGNHVVYRISAPSPEEKEEWMKSIKASISRDPFYDMLATRKRRIANKK", "values": [{"measurement": "concentration that maximally activates labeled nucleotide binding to ARF1", "setting": "ARF1; [5]", "result": 2.5, "unit": "µM"}, {"measurement": "ARF1 guanine nucleotide exchange", "setting": "ARF1; [^35 S]GTPγS binding to immunoprecipitated ARF1", "result": "catalyze nucleotide exchange; also recorded: selectively catalyzes"}, {"measurement": "binding of [^32 P]PI(3,4,5)P3 by GST fusion protein", "setting": "[1]", "result": "extensive binding"}, {"measurement": "concentration that maximally activates labeled nucleotide binding to ARF5", "setting": "ARF5 [2]; [5]", "result": 2.5, "unit": "µM"}, {"measurement": "ARF5 guanine nucleotide exchange", "setting": "ARF5 [2]; [^35 S]GTPγS binding", "result": "significantly enhanced; also recorded: catalyze nucleotide exchange; also recorded: selectively catalyzes"}, {"measurement": "ARF6 guanine nucleotide exchange", "setting": "ARF6", "result": "no effect and not"}]}
{"molecule": "cytohesin-1: B2-1 encoded protein (denoted cytohesin 1) (protein) MEEDDSYVPSDLTAEERQELENIRRRKQELLADIQRLKDEIAEVANEIENLGSTEERKNMQRNKQVAMGRKKFNMDPKKGIQFLIENDLLKNTCEDIAQFLYKGEGLNKTAIGDYLGERDEFNIQVLHAFVELHEFTDLNLVQALRQFLWSFRLPGEAQKIDRMMEAFAQRYCQCNNGVFQSTDTCYVLSFAIIMLNTSLHNPNVKDKPTVERFIAMNRGINDGGDLPEELLRNLYESIKNEPFKIPEDDGNDLTHTFFNPDREGWLLKLGGGRVKTWKRRWFILTDNCLYYFEYTTDKEPRGIIPLENLSIREVEDSKKPNCFELYIPDNKDQVIKACKTEADGRWEGNHTVYRISAPTPEEKEEWIKCIKAAISRDPFYEMLAARKKKVSSTKRH", "values": [{"measurement": "ARF5 as substrate for cytohesin-1", "setting": "ARF5 [3]", "result": "not to be a substrate"}, {"measurement": "binding of the integrin β2 cytoplasmic domain", "setting": "[4]", "result": "high affinity"}]}
